Results taken from paper PMC5415356.

Molecular target: PATJ (UniProt Q8NI35)
Experiment: reciprocal co-IP (Flag or HA), immunoblot
Settings: reference: wild type HA-Amot-p130; sites S176

Amot-p130 (Angiomotin) (from UniProt Q8VHG2) S176A
binding against the reference: lost
